Results as given in patent US20140348781A1.

Columns and labels:
GMCSF receptor (GMCSFR) = GMCSF receptor (GMCSFR) (UniProt Q00941); test: cell-based or functional assay
IL9 receptor (IL9R) = IL9 receptor (IL9R) (UniProt Q01114); test: cell-based or functional assay
Sequence of UniProt Q01114 (Q01114 38-468 limits assumed, chain 1 of 2): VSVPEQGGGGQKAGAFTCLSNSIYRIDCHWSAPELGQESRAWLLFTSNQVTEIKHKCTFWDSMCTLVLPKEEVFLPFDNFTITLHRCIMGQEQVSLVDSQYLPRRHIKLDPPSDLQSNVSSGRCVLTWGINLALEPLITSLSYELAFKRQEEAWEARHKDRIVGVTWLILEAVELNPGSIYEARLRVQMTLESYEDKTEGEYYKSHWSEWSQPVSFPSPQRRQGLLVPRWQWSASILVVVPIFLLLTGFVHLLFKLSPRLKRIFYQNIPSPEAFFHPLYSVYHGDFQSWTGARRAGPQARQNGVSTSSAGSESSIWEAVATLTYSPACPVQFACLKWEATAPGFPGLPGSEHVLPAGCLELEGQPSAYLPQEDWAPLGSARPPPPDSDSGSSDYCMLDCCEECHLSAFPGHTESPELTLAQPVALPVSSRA
Sequence of UniProt Q01114 (P34902 23-369 limits assumed, chain 2 of 2, further chain): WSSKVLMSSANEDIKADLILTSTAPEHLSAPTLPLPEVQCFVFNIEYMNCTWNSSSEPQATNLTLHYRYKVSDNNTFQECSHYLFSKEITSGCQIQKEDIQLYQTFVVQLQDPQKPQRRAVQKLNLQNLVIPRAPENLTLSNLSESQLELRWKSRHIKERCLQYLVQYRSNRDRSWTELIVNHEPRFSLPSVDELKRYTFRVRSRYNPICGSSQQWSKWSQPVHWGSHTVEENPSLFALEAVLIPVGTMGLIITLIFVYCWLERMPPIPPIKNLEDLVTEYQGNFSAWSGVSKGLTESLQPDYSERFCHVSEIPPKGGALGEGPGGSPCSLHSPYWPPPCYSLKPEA

Sequence of UniProt Q00941 (Q00941 30-388, chain 1 of 2): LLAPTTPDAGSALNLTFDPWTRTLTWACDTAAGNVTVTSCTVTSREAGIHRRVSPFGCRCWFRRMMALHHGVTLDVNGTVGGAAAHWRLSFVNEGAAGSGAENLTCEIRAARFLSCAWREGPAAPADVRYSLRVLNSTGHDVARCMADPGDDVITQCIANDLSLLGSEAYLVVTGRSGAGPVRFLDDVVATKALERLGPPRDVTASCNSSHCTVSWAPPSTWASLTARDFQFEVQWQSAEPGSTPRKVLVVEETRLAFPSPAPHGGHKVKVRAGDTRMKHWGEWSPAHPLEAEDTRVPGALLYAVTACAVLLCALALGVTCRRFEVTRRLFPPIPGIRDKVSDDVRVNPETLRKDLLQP
Sequence of UniProt Q00941 (P26955 23-896, chain 2 of 2, further chain): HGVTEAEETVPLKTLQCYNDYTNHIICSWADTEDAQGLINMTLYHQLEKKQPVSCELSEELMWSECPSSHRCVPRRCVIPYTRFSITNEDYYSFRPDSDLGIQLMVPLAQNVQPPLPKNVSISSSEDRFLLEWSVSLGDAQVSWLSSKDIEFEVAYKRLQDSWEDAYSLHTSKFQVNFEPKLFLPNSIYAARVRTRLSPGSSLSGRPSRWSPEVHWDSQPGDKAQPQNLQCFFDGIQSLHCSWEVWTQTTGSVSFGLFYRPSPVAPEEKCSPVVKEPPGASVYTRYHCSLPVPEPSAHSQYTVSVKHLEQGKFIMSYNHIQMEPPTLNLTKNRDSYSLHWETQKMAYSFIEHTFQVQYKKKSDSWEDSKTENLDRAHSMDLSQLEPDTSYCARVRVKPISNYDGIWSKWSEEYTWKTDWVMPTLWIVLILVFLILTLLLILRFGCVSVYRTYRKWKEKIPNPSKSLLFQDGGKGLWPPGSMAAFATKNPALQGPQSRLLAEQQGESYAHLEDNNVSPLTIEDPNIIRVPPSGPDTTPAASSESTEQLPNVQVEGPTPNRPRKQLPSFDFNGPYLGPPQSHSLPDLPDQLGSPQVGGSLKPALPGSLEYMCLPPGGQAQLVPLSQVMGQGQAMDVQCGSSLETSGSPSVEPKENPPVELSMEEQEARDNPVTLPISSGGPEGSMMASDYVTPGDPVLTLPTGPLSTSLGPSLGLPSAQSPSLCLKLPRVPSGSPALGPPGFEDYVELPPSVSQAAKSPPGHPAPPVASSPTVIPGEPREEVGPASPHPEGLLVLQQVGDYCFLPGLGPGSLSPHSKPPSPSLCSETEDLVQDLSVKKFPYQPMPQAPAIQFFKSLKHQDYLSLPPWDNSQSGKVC

proliferative rate of bone marrow derived mast cells (MTT assay, 5 days) (GMCSF receptor (GMCSFR)): 100%
proliferative rate of bone marrow derived mast cells (MTT assay, 5 days) (IL9 receptor (IL9R)): 100%
Substance: mouse GIFT9 (fusion of mouse GMCSF and mouse IL9) (ligand)
